# Results: IntAct's records for PubMed 19013460
# B1: Thiamine metabolism regulatory protein THI3 (Saccharomyces cerevisiae), Q07471 (parent)
# chain: MNSSYTQRYALPKCIAISDYLFHRLNQLNIHTIFGLSGEFSMPLLDKLYNIPNLRWAGNSNELNAAYAADGYSRLKGLGCLITTFGVGELSAINGVAGSYAEHVGILHIVGMPPTSAQTKQLLLHHTLGNGDFTVFHRIASDVACYTTLIIDSELCADEVDKCIKKAWIEQRPVYMGMPVNQVNLPIESARLNTPLDLQLHKNDPDVEKEVISRILSFIYKSQNPAIIVDACTSRQNLIEETKELCNRLKFPVFVTPMGKGTVNETDPQFGGVFTGSISAPEVREVVDFADFIIVIGCMLSEFSTSTFHFQYKTKNCALLYSTSVKLKNATYPDLSIKLLLQKILANLDESKLSYQPSEQPSMMVPRPYPAGNVLLRQEWVWNEISHWFQPGDIIITETGASAFGVNQTRFPVNTLGISQALWGSVGYTMGACLGAEFAVQEINKDKFPATKHRVILFMGDGAFQLTVQELSTIVKWGLTPYIFVMNNQGYSVDRFLHHRSDASYYDIQPWNYLGLLRVFGCTNYETKKIITVGEFRSMISDPNFATNDKIRMIEIMLPPRDVPQALLDRWVVEKEQSKQVQEENENSSAVNTPTPEFQPLLKKNQVGY
# partner: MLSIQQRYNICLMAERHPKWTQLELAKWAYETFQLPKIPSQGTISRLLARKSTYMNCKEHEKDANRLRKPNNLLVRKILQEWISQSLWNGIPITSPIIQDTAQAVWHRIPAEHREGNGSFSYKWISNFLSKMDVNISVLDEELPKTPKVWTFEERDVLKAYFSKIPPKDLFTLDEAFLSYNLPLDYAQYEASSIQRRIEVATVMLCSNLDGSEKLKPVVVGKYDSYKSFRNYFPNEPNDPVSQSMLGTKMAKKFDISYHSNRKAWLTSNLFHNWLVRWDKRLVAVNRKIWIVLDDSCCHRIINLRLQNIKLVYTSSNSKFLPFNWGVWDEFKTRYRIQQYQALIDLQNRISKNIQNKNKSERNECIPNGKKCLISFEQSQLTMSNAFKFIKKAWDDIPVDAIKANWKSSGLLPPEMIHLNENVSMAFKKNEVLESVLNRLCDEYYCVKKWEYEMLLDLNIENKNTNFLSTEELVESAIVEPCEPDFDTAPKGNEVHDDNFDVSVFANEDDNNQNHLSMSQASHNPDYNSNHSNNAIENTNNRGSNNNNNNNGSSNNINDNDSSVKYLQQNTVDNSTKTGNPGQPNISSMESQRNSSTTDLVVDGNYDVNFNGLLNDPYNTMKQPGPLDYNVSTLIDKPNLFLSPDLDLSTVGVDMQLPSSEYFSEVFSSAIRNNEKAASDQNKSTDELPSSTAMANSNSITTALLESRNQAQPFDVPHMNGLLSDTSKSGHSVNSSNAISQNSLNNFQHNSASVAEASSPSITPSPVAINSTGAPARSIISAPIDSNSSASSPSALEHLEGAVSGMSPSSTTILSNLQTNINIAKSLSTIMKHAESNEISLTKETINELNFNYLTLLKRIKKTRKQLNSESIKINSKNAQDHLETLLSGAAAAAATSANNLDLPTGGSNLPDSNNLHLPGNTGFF
# Variants of: B1
# Details: with pdc2_yeast PDC2, P32896
row,effect of a mutation on the interaction,Variant
1,increasing interaction,N488D
